According to patent US20210261648A1 (published 2021):

T1: FcγRIIa type R extracellular domain with C-terminal His tag (human, UniProt P12318 34-217)
T1 chain: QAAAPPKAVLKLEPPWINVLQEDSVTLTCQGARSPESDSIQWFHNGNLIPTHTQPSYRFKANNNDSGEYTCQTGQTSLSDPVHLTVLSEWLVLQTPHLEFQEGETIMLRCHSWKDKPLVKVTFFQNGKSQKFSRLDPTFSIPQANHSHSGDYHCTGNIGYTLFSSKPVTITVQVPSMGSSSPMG

T2: FcγRIIb extracellular domain with C-terminal His tag (human, UniProt P31994 43-217)
T2 construct: extracellular domain; For crystallography it was expressed with kifunensine and trimmed with Endo F1; also called FcgRIIb; FcγRIIb extracellular region; not shown: His tag attached to the C terminus
T2 sequence (looked up): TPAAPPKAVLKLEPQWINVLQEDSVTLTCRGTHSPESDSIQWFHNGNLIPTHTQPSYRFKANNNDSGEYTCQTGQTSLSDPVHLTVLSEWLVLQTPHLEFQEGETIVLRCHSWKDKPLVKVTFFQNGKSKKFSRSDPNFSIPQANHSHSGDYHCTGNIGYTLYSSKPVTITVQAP

T3: FcγRIIa type H extracellular domain with C-terminal His tag (human, UniProt P12318 34-217)
T3 construct: extracellular domain; also called FcγRIIaH; FcgRIIaH; not shown: His tag attached to the C terminus
T3 sequence (looked up): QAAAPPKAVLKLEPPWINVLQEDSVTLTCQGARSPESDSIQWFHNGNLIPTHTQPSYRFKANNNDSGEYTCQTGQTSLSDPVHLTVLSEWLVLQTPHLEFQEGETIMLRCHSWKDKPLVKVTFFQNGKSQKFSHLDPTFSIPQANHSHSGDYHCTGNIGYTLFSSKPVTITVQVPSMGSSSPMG


Legend:
[1] = molecular target: T1, FcγRIIa type R extracellular domain …; experiment: SPR binding amount, relative to IL6R-F652/IL6R-L
[2] = molecular target: T2, FcγRIIb extracellular domain with …; experiment: SPR binding amount, relative to IL6R-F652/IL6R-L
[3] = molecular target: T3, FcγRIIa type H extracellular domain …; experiment: SPR binding amount, relative to IL6R-BF648/IL6R-L
[4] = molecular target: T4, FcγRIa extracellular domain with C-terminal His tag (human, UniProt P12314 16-292); experiment: SPR binding amount, relative to IL6R-BF648/IL6R-L
T4 construct: also called FcgRIa; not shown: His tag attached to the C terminus

[5] = molecular target: T2, FcγRIIb extracellular domain with …; experiment: SPR binding amount, relative to IL6R-BF648/IL6R-L

T4 sequence (P12314 16-292): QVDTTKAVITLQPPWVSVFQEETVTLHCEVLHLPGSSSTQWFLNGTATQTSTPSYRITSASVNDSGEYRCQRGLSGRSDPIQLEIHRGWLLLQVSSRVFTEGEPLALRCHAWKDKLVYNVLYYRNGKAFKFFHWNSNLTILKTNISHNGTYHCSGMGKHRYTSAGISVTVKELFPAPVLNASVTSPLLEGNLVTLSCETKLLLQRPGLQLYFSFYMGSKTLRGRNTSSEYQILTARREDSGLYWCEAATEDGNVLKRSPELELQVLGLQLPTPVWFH

Binder	relative binding activity to FcγRIIaR (IL6R-F652/IL6R-L = 100) [1]	relative binding activity to FcγRIIb (IL6R-F652/IL6R-L = 100) [2]	relative binding activity (IL6R-BF648/IL6R-L = 100) [3]	relative binding activity (IL6R-BF648/IL6R-L = 100) [4]	relative binding activity (IL6R-BF648/IL6R-L = 100) [5]
IL6R-BP126/IL6R-L (antibody, human IgG1, kappa, Alterations introduced into IL6R-B3) heavy: QVQLQESGPGLVKPSETLSLTCAVSGHSISHDHAWSWVRQPPGEGLEWIGFISYSGITNYNPSLQGRVTISRDNSKNTLYLQMNSLRAEDTAVYYCARSLARTTAMDYWGEGTLVTVSSASTKGPSVFPLAPSSKSTSGGTAALGCLVKDYFPEPVTVSWNSGALTSGVHTFPAVLQSSGLYSLSSVVTVPSSSLGTQTYICNVNHKPSNTKVDKKVEPKSCDKTHTCPPCPAPELLGGDSVFLFPPKPKDTLMISRTPEVTCVVVDVSHEDPEVKFNWYVDGVEVHNAKTKPREEQYNSTYRVVSVLTVLHQDWLNGKEYKCKVSNLALPAPIEKTISKAKGQPREPQVYTLPPSRDELTKNQVSLTCLVKGFYPSDIAVEWESNGQPENNYKTTPPVLDSDGSFFLYSKLTVDKSRWQQGNVFSCSVMHEALHNHYTQESLSLSP light: not shown			132	113	103
IL6R-BP121/IL6R-L (antibody, human IgG1, kappa, Alterations introduced into IL6R-B3) heavy: QVQLQESGPGLVKPSETLSLTCAVSGHSISHDHAWSWVRQPPGEGLEWIGFISYSGITNYNPSLQGRVTISRDNSKNTLYLQMNSLRAEDTAVYYCARSLARTTAMDYWGEGTLVTVSSASTKGPSVFPLAPSSKSTSGGTAALGCLVKDYFPEPVTVSWNSGALTSGVHTFPAVLQSSGLYSLSSVVTVPSSSLGTQTYICNVNHKPSNTKVDKKVEPKSCDKTHTCPPCPAPELLGGDSVFLFPPKPKDTLMISRTPEVTCVVVDVSHEDPEVKFNWYVDGVEVHNAKTKPREEQYNSTYRVVSVLTVLHQDWLNGKEYKCKVSNQALPAPIEKTISKAKGQPREPQVYTLPPSRDELTKNQVSLTCLVKGFYPSDIAVEWESNGQPENNYKTTPPVLDSDGSFFLYSKLTVDKSRWQQGNVFSCSVMHEALHNHYTQESLSLSP light: not shown			135	118	113
IL6R-BP119/IL6R-L (antibody, human IgG1, kappa, Alterations introduced into IL6R-B3) heavy: QVQLQESGPGLVKPSETLSLTCAVSGHSISHDHAWSWVRQPPGEGLEWIGFISYSGITNYNPSLQGRVTISRDNSKNTLYLQMNSLRAEDTAVYYCARSLARTTAMDYWGEGTLVTVSSASTKGPSVFPLAPSSKSTSGGTAALGCLVKDYFPEPVTVSWNSGALTSGVHTFPAVLQSSGLYSLSSVVTVPSSSLGTQTYICNVNHKPSNTKVDKKVEPKSCDKTHTCPPCPAPELLGGDSVFLFPPKPKDTLMISRTPEVTCVVVDVSHEDPEVKFNWYVDGVEVHNAKTKPREEQYNSTYRVVSVLTVLHQDWLNGKEYKCKVSNMALPAPIEKTISKAKGQPREPQVYTLPPSRDELTKNQVSLTCLVKGFYPSDIAVEWESNGQPENNYKTTPPVLDSDGSFFLYSKLTVDKSRWQQGNVFSCSVMHEALHNHYTQESLSLSP light: not shown			133	117	110
IL6R-BP136/IL6R-L (antibody, human IgG1, kappa, Alterations introduced into IL6R-B3) heavy: QVQLQESGPGLVKPSETLSLTCAVSGHSISHDHAWSWVRQPPGEGLEWIGFISYSGITNYNPSLQGRVTISRDNSKNTLYLQMNSLRAEDTAVYYCARSLARTTAMDYWGEGTLVTVSSASTKGPSVFPLAPSSKSTSGGTAALGCLVKDYFPEPVTVSWNSGALTSGVHTFPAVLQSSGLYSLSSVVTVPSSSLGTQTYICNVNHKPSNTKVDKKVEPKSCDKTHTCPPCPAPELLGGDSVFLFPPKPKDTLMISRTPEVTCVVVDVSHEDPEVKFNWYVDGVEVHNAKTKPREEQYNSTYRVVSVLTVLHQDWLNGKEYKCKVSNAALPAPIEKTISKAKGQPREPQVYTLPPSRDELTKNQVSLTCLVKGFYPSDIAVEWESNGQPENNYKTTPPVLDSDGSFFLYSKLTVDKSRWQQGNVFSCSVMHEALHNHYTQESLSLSP light: not shown			103	117	119

Results, then the binder that gave them:

relative binding activity to FcγRIIaR (IL6R-F652/IL6R-L = 100) [1]	relative binding activity to FcγRIIb (IL6R-F652/IL6R-L = 100) [2]	relative binding activity (IL6R-BF648/IL6R-L = 100) [3]	relative binding activity (IL6R-BF648/IL6R-L = 100) [4]	relative binding activity (IL6R-BF648/IL6R-L = 100) [5]	Binder
100	100				IL6R-F652/IL6R-L (antibody, human IgG1, kappa, IL6R-F11 (IL6R-G1d with M252Y/N434Y) with P238D) heavy: QVQLQESGPGLVKPSETLSLTCAVSGHSISHDHAWSWVRQPPGEGLEWIGFISYSGITNYNPSLQGRVTISRDNSKNTLYLQMNSLRAEDTAVYYCARSLARTTAMDYWGEGTLVTVSSASTKGPSVFPLAPSSKSTSGGTAALGCLVKDYFPEPVTVSWNSGALTSGVHTFPAVLQSSGLYSLSSVVTVPSSSLGTQTYICNVNHKPSNTKVDKKVEPKSCDKTHTCPPCPAPELLGGDSVFLFPPKPKDTLYISRTPEVTCVVVDVSHEDPEVKFNWYVDGVEVHNAKTKPREEQYNSTYRVVSVLTVLHQDWLNGKEYKCKVSNKALPAPIEKTISKAKGQPREPQVYTLPPSRDELTKNQVSLTCLVKGFYPSDIAVEWESNGQPENNYKTTPPVLDSDGSFFLYSKLTVDKSRWQQGNVFSCSVMHEALHYHYTQKSLSLSP light: not shown
		93	60	103	IL6R-BP912/IL6R-L (antibody, human IgG1, kappa, Alterations introduced into IL6R-B3) heavy: QVQLQESGPGLVKPSETLSLTCAVSGHSISHDHAWSWVRQPPGEGLEWIGFISYSGITNYNPSLQGRVTISRDNSKNTLYLQMNSLRAEDTAVYYCARSLARTTAMDYWGEGTLVTVSSASTKGPSVFPLAPSSKSTSGGTAALGCLVKDYFPEPVTVSWNSGALTSGVHTFPAVLQSSGLYSLSSVVTVPSSSLGTQTYICNVNHKPSNTKVDKKVEPKSCDKTHTCPPCPAPELLGGDSVFLFPPKPKDTLMISRTPEVTCVVVDVSHEDPEVKFNWYVDGVEVHNAKTKPREEQYNSTYRVVSVLTVLHQDWLNGKEYKCKVSNKALPRPIEKTISKAKGQPREPQVYTLPPSRDELTKNQVSLTCLVKGFYPSDIAVEWESNGQPENNYKTTPPVLDSDGSFFLYSKLTVDKSRWQQGNVFSCSVMHEALHNHYTQESLSLSP light: not shown
175	112				IL6R-PD043/IL6R-L (antibody, human IgG1, kappa, PD variant; alterations introduced into IL6R-F11) heavy: QVQLQESGPGLVKPSETLSLTCAVSGHSISHDHAWSWVRQPPGEGLEWIGFISYSGITNYNPSLQGRVTISRDNSKNTLYLQMNSLRAEDTAVYYCARSLARTTAMDYWGEGTLVTVSSASTKGPSVFPLAPSSKSTSGGTAALGCLVKDYFPEPVTVSWNSGALTSGVHTFPAVLQSSGLYSLSSVVTVPSSSLGTQTYICNVNHKPSNTKVDKKVEPKSCDKTHTCPPCPAPEYLGGDSVFLFPPKPKDTLYISRTPEVTCVVVDVSHEDPEVKFNWYVDGVEVHNAKTKPREEQYNSTYRVVSVLTVLHQDWLNGKEYKCKVSNKALPAPIEKTISKAKGQPREPQVYTLPPSRDELTKNQVSLTCLVKGFYPSDIAVEWESNGQPENNYKTTPPVLDSDGSFFLYSKLTVDKSRWQQGNVFSCSVMHEALHYHYTQKSLSLSP light: not shown
		108	52	119	IL6R-BP911/IL6R-L (antibody, human IgG1, kappa, Alterations introduced into IL6R-B3) heavy: QVQLQESGPGLVKPSETLSLTCAVSGHSISHDHAWSWVRQPPGEGLEWIGFISYSGITNYNPSLQGRVTISRDNSKNTLYLQMNSLRAEDTAVYYCARSLARTTAMDYWGEGTLVTVSSASTKGPSVFPLAPSSKSTSGGTAALGCLVKDYFPEPVTVSWNSGALTSGVHTFPAVLQSSGLYSLSSVVTVPSSSLGTQTYICNVNHKPSNTKVDKKVEPKSCDKTHTCPPCPAPELLGGDSVFLFPPKPKDTLMISRTPEVTCVVVDVSHEDPEVKFNWYVDGVEVHNAKTKPREEQYNSTYRVVSVLTVLHQDWLNGKEYKCKVSNKALPKPIEKTISKAKGQPREPQVYTLPPSRDELTKNQVSLTCLVKGFYPSDIAVEWESNGQPENNYKTTPPVLDSDGSFFLYSKLTVDKSRWQQGNVFSCSVMHEALHNHYTQESLSLSP light: not shown
		97	98	106	IL6R-BP142/IL6R-L (antibody, human IgG1, kappa, Alterations introduced into IL6R-B3) heavy: QVQLQESGPGLVKPSETLSLTCAVSGHSISHDHAWSWVRQPPGEGLEWIGFISYSGITNYNPSLQGRVTISRDNSKNTLYLQMNSLRAEDTAVYYCARSLARTTAMDYWGEGTLVTVSSASTKGPSVFPLAPSSKSTSGGTAALGCLVKDYFPEPVTVSWNSGALTSGVHTFPAVLQSSGLYSLSSVVTVPSSSLGTQTYICNVNHKPSNTKVDKKVEPKSCDKTHTCPPCPAPELLGGDSVFLFPPKPKDTLMISRTPEVTCVVVDVSHEDPEVKFNWYVDGVEVHNAKTKPREEQYNSTYRVVSVLTVLHQDWLNGKEYKCKVSNNALPAPIEKTISKAKGQPREPQVYTLPPSRDELTKNQVSLTCLVKGFYPSDIAVEWESNGQPENNYKTTPPVLDSDGSFFLYSKLTVDKSRWQQGNVFSCSVMHEALHNHYTQESLSLSP light: not shown
